B1: gorilla basigin, entire ectodomain (receptor)
chain: ASGAAGTVLTTVEELGSKILLTCSLNDSATEVTGHRWLKGGVVLKEDALPGQKTEFEVDSDDQWGEYSCVFLPEPMGTANIQLHHGPPRVKAVKLSEHINEGETAVLACKSESVPPVTDWAWYKITDSGDKALTNGSESRFFVSSSQGRSELYIENLNMEADPGQYRCNGTSSKGSDQAVITLRVRSHLA
modifications: biotin (enzymatic monobiotinylation; site not stated)
B2: chimpanzee basigin, entire ectodomain (receptor)
chain: ASGAAGTVFTTVEDLGSKILLTCYMNDSATEVTGHRWLKGGVVLEEDALPGQKTEFKVDSDDQWGEYSCVFLPEPMGTANIQLHGPPRVKAVKSSEHINEGETAVLVCKSESVPPVTDWAWYKITDSGDKALMNGSESRFFVSSLQGRSELHIENLNMEADPGQYRCNGNSSEGSDQAVITLRVRSHLA
modifications: biotin (enzymatic monobiotinylation; site not stated)
B3: P. reichenowi RH5 (ligand)
chain: MIRIKKKIILSILYIHLFILNSLSFENAKKKTKNQENNLTLLPIKSSEEEKSNIKHKDIGNVNKDDINNDIDNDKKDVKISNVKDHSTYIKSYLNKNVNDGLKYLFMPSHNAYIKKYSLFNKMNNDMLLNEKKDVNNNKEDDKNINHKNVNFLQNDFKGLPKNNIADSIDIVQDKEGHLDFIIIPYYSHVEYCKHLSIISVFHRLSTYGEYKDVIAFVKNINEKYDKVKDKCNEIKNDLITTIKKLENPHDVNNKNEDSNIYNTFEDIDDIYEDDMQDQLEYVYDTIEDADSDNTHPNKKKYHLINRTYKKMMDEYNLKKNKLIQCIKNNEPDFNNIYMDIKNYSTNRFENISCDNINFCNTNGIKNHYIYYIEKEMLAIKSKDLNKDIKDMTSILQQSELLLINLNKKMGSYIYIDTIKFIHKEMKYIFKRIEHHTNIIIDKIKIIDDKYKISINKTFPKNILLPKILDLSNEYALFITSSTLRQMLYNTFYTKEKHLHNLFHHLIYVLQIKFNDVPVHMEYFPLYKKKKILTQ
B4: human basigin, entire ectodomain (receptor)
chain: EPGTVFTTVEDLGSKILLTCSLNDSATEVTGHRWLKGGVVLKEDALPGQKTEFKVDSDDQWGEYSCVFLPEPMGTANIQLHGPPRVKAVKSSEHINEGETAMLVCKSESVPPVTDWAWYKITDSEDKALMNGSESRFFVSSSQGRSELHIENLNMEADPGQYRCNGTSSKGSDQAIITLRVRSHLAAL
modifications: biotin (enzymatic monobiotinylation; site not stated)

Experiments:
Test in all cases: SPR
P. adleri RH5 = P. adleri RH5 (P. adleri)
P. praefalciparum RH5 = P. praefalciparum RH5 (P. praefalciparum)
[1] = target: introgressed ancestral RH5 (reticulocyte-binding protein homologue 5) (calculated ancestor; parent sequence P. …, UniProt Q8IFM5 25-526, H200)
P. billcollinsi RH5 = P. billcollinsi RH5 (P. billcollinsi)
[2] = target: B2
P. gaboni RH5 = P. gaboni RH5 (P. gaboni)

| Binder | Kd (P. adleri RH5) | Kd (P. praefalciparum RH5) | further results |
| --- | --- | --- | --- |
| B1 | 1000 nM | 2500 nM | Kd [1]: 3000 nM |
| B2 |  |  | Kd (P. billcollinsi RH5): 1800 nM |
| B3 |  |  | Kd [2]: 4300 nM |
| B4 | 3100 nM | 1900 nM | Kd (P. gaboni RH5): 3600 nM |

Source: article PMC6793842 (2019)
